This note sets out measurements from IntAct's records for PubMed 17911252.

Sequences and labels used below:
B1: N-chimaerin (Homo sapiens), P15882-1 (parent)
chain: MALTLFDTDEYRPPVWKSYLYQLQQEAPHPRRITCTCEVENRPKYYGREFHGMISREAADQLLIVAEGSYLIRESQRQPGTYTLALRFGSQTRNFRLYYDGKHFVGEKRFESIHDLVTDGLITLYIETKAAEYIAKMTINPIYEHVGYTTLNREPAYKKHMPVLKETHDERDSTGQDGVSEKRLTSLVRRATLKENEQIPKYEKIHNFKVHTFRGPHWCEYCANFMWGLIAQGVKCADCGLNVHKQCSKMVPNDCKPDLKHVKKVYSCDLTTLVKAHTTKRPMVVDMCIREIESRGLNSEGLYRVSGFSDLIEDVKMAFDRDGEKADISVNMYEDINIITGALKLYFRDLPIPLITYDAYPKFIESAKIMDPDEQLETLHEALKLLPPAHCETLRYLMAHLKRVTLHEKENLMNAENLGIVFGPTLMRSPELDAMAALNDIRYQRLVVELLIKNEDILF

In the test the parent is B1. The note with it: with epha4_mouse Epha4, Q03137.
Sequence of epha4_mouse Epha4, Q03137 (Q03137 whole entry): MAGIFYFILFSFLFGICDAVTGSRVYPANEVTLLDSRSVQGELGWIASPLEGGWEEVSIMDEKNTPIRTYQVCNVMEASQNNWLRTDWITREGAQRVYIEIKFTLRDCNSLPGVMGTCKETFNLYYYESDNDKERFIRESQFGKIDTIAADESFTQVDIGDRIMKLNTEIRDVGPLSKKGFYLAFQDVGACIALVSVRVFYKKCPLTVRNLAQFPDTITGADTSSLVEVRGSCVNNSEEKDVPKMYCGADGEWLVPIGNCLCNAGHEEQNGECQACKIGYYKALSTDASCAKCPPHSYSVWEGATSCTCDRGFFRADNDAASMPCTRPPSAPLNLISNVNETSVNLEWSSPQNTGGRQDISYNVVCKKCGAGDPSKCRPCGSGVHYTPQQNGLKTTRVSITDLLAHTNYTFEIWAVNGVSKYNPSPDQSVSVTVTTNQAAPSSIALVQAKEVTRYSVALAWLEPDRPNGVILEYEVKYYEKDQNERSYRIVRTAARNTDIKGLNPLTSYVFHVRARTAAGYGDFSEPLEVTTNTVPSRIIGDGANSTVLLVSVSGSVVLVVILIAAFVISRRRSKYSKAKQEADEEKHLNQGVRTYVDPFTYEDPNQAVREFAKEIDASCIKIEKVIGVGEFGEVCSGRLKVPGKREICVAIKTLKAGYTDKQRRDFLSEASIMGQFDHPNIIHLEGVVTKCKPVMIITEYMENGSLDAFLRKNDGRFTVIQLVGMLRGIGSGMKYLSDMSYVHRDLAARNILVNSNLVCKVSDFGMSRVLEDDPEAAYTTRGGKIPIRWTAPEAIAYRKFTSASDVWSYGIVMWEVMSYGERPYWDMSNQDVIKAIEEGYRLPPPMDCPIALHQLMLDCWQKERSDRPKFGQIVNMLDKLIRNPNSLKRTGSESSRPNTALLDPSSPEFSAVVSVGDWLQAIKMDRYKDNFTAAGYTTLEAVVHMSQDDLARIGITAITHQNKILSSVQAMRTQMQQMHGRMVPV
Regarding MALTLFDTDEYRPPVWKSYLYQLQQEAPHPRRITCTCEVENRPKYYGREFHGMISLEAADQLLIVAEGSYLIRESQRQPGTYTLALRFGSQTRNFRLYYDGKHFVGEKRFESIHDLVTDGLITLYIETKAAEYIAKMTINPIYEHVGYTTLNREPAYKKHMPVLKETHDERDSTGQDGVSEKRLTSLVRRATLKENEQIPKYEKIHNFKVHTFRGPHWCEYCANFMWGLIAQGVKCADCGLNVHKQCSKMVPNDCKPDLKHVKKVYSCDLTTLVKAHTTKRPMVVDMCIREIESRGLNSEGLYRVSGFSDLIEDVKMAFDRDGEKADISVNMYEDINIITGALKLYFRDLPIPLITYDAYPKFIESAKIMDPDEQLETLHEALKLLPPAHCETLRYLMAHLKRVTLHEKENLMNAENLGIVFGPTLMRSPELDAMAALNDIRYQRLVVELLIKNEDILF [R56L], the “effect of a mutation on the interaction” value was “decreasing interaction strength”.
